# From patent publication US20150267232A1, “IN VIVO AND IN VITRO CARBENE INSERTION AND NITRENE TRANSFER REACTIONS CATALYZED BY HEME ENZYMES” (California Institute of Technology, priority 2012, published 2015)
# Several values for one entry are separate records, joined by “and”; a condition that tells them apart may be missing. Identical values can stand only once.
# B1: ABC-T268A: P450BM3 variant: T268A, C400S (protein, listed as Bacillus megaterium)
# chain: TIKEMPQPKTFGELKNLPLLNTDKPVQALMKIADELGEIFKFEAPGRVTRYLSSQRLIKEACDESRFDKNLSQALKFVRDFAGDGLFTSWTHEKNWKKAHNILLPSFSQQAMKGYHAMMVDIAVQLVQKWERLNADEHIEVPEDMTRLTLDTIGLCGFNYRFNSFYRDQPHPFITSMVRALDEAMNKLQRANPDDPAYDENKRQFQEDIKVMNDLVDKIIADRKASGEQSDDLLTHMLNGKDPETGEPLDDENIRYQIITFLIAGHEATSGLLSFALYFLVKNPHVLQKAAEEAARVLVDPVPSYKQVKQLKYVGMVLNEALRLWPTAPAFSLYAKEDTVLGGEYPLEKGDELMVLIPQLHRDKTIWGDDVEEFRPERFENPSAIPQHAFKPFGNGQRASIGQQFALHEATLVLGMMLKHFDFEDHTNYELDIKETLTLKPEGFVVKAKSKKIPLGGIPSPSTEQSAKKVRKKAENAHNTPLLVLYGSNMGTAEGTARDLADIAMSKGFAPQVATLDSHAGNLPREGAVLIVTASYNGHPPDNAKQFVDWLDQASADEVKGVRYSVFGCGDKNWATTYQKVPAFIDETLAAKGAENIADRGEADASDDFEGTYEEWREHMWSDVAAYFNLDIENSEDNKSTLSLQFVDSAADMPLAKMHGAFSTNVVASKELQQPGSARSTRHLEIELPKEASYQEGDHLGVIPRNYEGIVNRVTARFGLDASQQIRLEAEEEKLAHLPLAKTVSVEELLQYVELQDPVTRTQLRAMAAKTVCPPHKVELEALLEKQAYKEQVLAKRLTMLELLEKYPACEMKFSEFIALLPSIRPRYYSISSSPRVDEKQASITVSVVSGEAWSGYGEYKGIASNYLAELQEGDTITCFISTPQSEFTLPKDPETPLIMVGPGTGVAPFRGFVQARKQLKEQGQSLGEAHLYFGCRSPHEDYLYQEELENAQSEGIITLHTAFSRMPNQPKTYVQHVMEQDGKKLIELLDQGAHFYICGDGSQMAPAVEATLMKSYADVHQVSEADARLWLQQLEEKGRYAKDVWAG
# modifications: cytochrome P450NADPH-P-450 reductase precursor, cytochrome P450 (BM3), CYP102A1
# notes: P450BM3 variant: T268A, C400S
# Assay: Whole-cell C—H amination of azide 1
# Format: cell-based, E. coli BL21(DE3)
# Settings: intact E. coli cells
# Experimental: Reaction conditions were as follows: 2 mM azide 1, 25 mM glucose, E. coli BL21(DE3) cells in M9-N minimal medium (OD600=30), 2.5% DMSO, oxygen depletion system (100 U ml^−1 glucose oxidase, 1400 U ml^−1 catalase) reacted for 24 hours under anaerobic conditions at 298 K. Yields determined by HPLC quantification.
# (§1) Whole cell reactions used E. coli BL21(DE3) cells containing P450 or P411 catalysts, which were expressed and prepared as described elsewhere (Coelho, P. S. et al., Highly efficient carbene transfer to olefins catalyzed in vivo. Submitted (2013)). Following expression, cells were resuspended to an OD600 of 30 in M9 salts lacking NH4Cl (M9-N), and then degassed by sparging with argon in a sealed 6 mL crimp vial for at least 0.5 h. Separately, glucose (250 mM dissolved in 1×M9-N, 40 μL, or multiples thereof) was degassed by sparging with argon for at least five minutes. The oxygen quenching mixture was added to sealed 2 mL crimp vials containing stir bars and the headspace of the vials was purged with argon for five minutes at which time glucose, and then cells were added by syringe. Substrate (80 mM arylsulfonyl azide, 10 uL in DMSO) was added via syringe, and the reactions were stirred at room temperature for 24 h under positive argon pressure.
# as §1, with “E.” for “Whole cell reactions used E.”, “catalysts” for “catalysts, which”, “Coelho,” for “(Coelho,”, “μL” for “uL”, “pressure. Reactions were quenched in a manner identical to reactions containing purified enzymes as described above. For chiral HPLC, the reactions were extracted and purified in an identical manner as for reactions that employed purified enzymes. Lyophilized intact cells containing sucrose as a cryoprotectant were prepared as described elsewhere (Coelho, P. S. et al., Highly efficient carbene transfer to olefins catalyzed in vivo. Submitted (2013)). The resulting cell powder, containing expressed ABC-CIS (26 mg) were added along with a stir bar to a 2 mL crimp vial and then sealed. The headspace of the vial was degassed, oxygen quenching system (40 μL) was added via syringe, followed by degassed glucose (250 mM, 40 μL), M9-N (310 μL), and finally substrate (80 mM 1, 10 μL). Lyophilized cell reactions were stirred for 24 h at room temperature, then quenched and analyzed as described above. […]” for “pressure.”
# The preparative reaction was scaled up proportionally from small-scale reactions. E. coli BL21 cells containing ABC-CIS (OD600 30, 90 mL in M9-N) were sparged with argon for 45 minutes in a round bottom flask (250 mL) containing a stir bar. Separately, glucose solution (250 mM, 11.6 mL) was sparged with argon in a conical flask. The oxygen quenching mixture (10×, 11.6 mL) was degassed in a conical flask that was placed under high vacuum until slight foaming occurred (1-2 s) and then back-filled with argon; this sequence was repeated several times. Sparged glucose solution was then added to the anaerobic cell suspension via syringe, followed by the oxygen quenching system. Finally, substrate 1 (80 mM, 2.9 mL DMSO) was added dropwise via syringe, and the reaction was stirred for 24 h at room temperature. To quench the reaction, dilute HCl (3 M, 8.7 mL) and acetonitrile (125 mL) were added. […]
# [1] = OD600=30, 2 mM azide 1, 24 hours, anaerobic
molecule,measurement,setting,value
B1,Yield sulfonamide (%),[1],45%
same,Yield sultam (%),[1],30%
same,TTN,"anaerobic, added glucose",245 and 250
same,% ee,(S − R)/(S + R),89%
